Measurements reported in patent US20260193316A1.

Key:
Experiment in all cases: cell-based or functional assay
C1C3 (human) = C1C3 (human) (UniProt P11836)
C1C252 (human) = C1C252 (human) (UniProt P11836)
[1] = target: CD20WT (wild type amino acidic sequence of human CD20) (human) (UniProt P11836)

- reduction in the hCD20+ cell population in mice (GFP+ T cells in blood) (C1C3 (human)): 65%
- reduction in the hCD20+ cell population in mice (GFP+ T cells in blood) (C1C252 (human)): 65%
- reduction in the hCD20+ cell population in mice (GFP+ T cells in blood) [1]: 65%
Substance: 2H7 mouse anti-human CD20 antibody
